Assay results as given in paper PMC2191985 (The Journal of Experimental Medicine, 1995).
Values belong to the molecule of their own block, whether it stands above or below them.

What was measured:
[1] = target: 10-kD NH2-terminal fragment of the invariant chain (Ii-p10) (mouse); assay: SEC + co-IP
SEC + co-IP = target: the molecule itself; assay: SEC + co-IP

- stoichiometry N [1]: 3
Molecule: 10-kD NH2-terminal fragment of the invariant chain (Ii-p10) (domain or fragment)

B1: intact invariant (Ii) chain (natural protein, mouse, UniProt P04441-2 1-215, looked up)
chain: MDDQRDLISNHEQLPILGNRPREPERCSRGALYTGVSVLVALLLAGQATTAYFLYQQQGRLDKLTITSQNLQLESLRMKLPKSAKPVSQMRMATPLLMRPMSMDNMLLGPVKNVTKYGNMTQDHVMHLLTRSGPLEYPQLKGTFPENLKHLKNSMDGVNWKIFESWMKQWLLFEMSKNSLEEKKPTEAPPKEPLDMEDLSSGLGVTRQELGQVTL
- stoichiometry N (SEC + co-IP): 3
